Measured values: PMC7943553, “Naturally acquired blocking human monoclonal antibodies to Plasmodiumvivax reticulocyte binding protein 2b” (Nature Communications, 2021)

How the values were obtained:
Conditions in all cases: both partners purified
[1] = target: T1, P. vivax Reticulocyte Binding Protein 2b, residues 161–1454 (P. vivax strain Salvador I, UniProt A5K736, DyLight 488 (NHS ester) in the FRET assay; biotin (BirA site) in the competition ELISA between human mAbs); assay: flow cytometry on cells; PvRBP2b161–1454 at 4 μg/mL with human mAbs at 5-fold molar excess and reticulocytes, 1 h room temperature; inhibition relative to no mAb
T1 construct: PvRBP2b, P. vivax strain Salvador I, PlasmoDB PVX_094255 (total length 2806 amino acids), residues 161-1454; also called PvRBP2b_(161–1454); PvRBP2b; source: recombinant; expressed and purified in a similar manner as PvRBP2b161–470 (E. coli SHuffle T7; HisTrap, Q-Sepharose, size exclusion) or as previously described

[2] = target: T1, P. vivax Reticulocyte Binding Protein …; assay: ELISA; plates coated with 65 nM recombinant protein in PBS at 4 °C overnight; human mAbs at 1 μg/mL, 1 h room temperature; HRP anti-human secondary; specificity panel and PvRBP2b fragments
[3] = target: T1, P. vivax Reticulocyte Binding Protein …; assay: FRET or BRET; PvRBP2b161–1454-DL488, TfR1-DL594 and Tf at 1:1:1 molar ratio, 5-fold excess of human mAbs; 50 mM Tris-HCl pH 6.8, 150 mM NaCl, 0.01% BSA
[4] = target: T1, P. vivax Reticulocyte Binding Protein …; assay: ELISA; avidity ELISA: plates coated with 50 ng PvRBP2b161–1454; human mAbs at 0.2 µg/mL; then PBS, 0.5, 1 or 2 M NH4SCN for 20 min; binding relative to no NH4SCN
[5] = target: T2, human Transferrin receptor 1 – Transferrin (human, UniProt P02786 121-760; P02787 20-698, DyLight 594 (NHS ester) in the FRET assay); assay: FRET or BRET; PvRBP2b161–1454-DL488, TfR1-DL594 and Tf at 1:1:1 molar ratio, 5-fold excess of human mAbs; 50 mM Tris-HCl pH 6.8, 150 mM NaCl, 0.01% BSA
T2 construct: soluble ectodomain of human transferrin receptor 1, residues 121-760; follows the GP67 leader peptide, a 6xHis-tag and a factor Xa site; transferrin purified from human serum (apo-transferrin), loaded with iron to holo-transferrin; TfR1 and Tf were mixed with PvRBP2b in equal amounts in the assays; also called TfR1–Tf; TfR1 and Tf; copies: 2 + 2
T2 sequence (P02786 121-760, chain 1 of 2): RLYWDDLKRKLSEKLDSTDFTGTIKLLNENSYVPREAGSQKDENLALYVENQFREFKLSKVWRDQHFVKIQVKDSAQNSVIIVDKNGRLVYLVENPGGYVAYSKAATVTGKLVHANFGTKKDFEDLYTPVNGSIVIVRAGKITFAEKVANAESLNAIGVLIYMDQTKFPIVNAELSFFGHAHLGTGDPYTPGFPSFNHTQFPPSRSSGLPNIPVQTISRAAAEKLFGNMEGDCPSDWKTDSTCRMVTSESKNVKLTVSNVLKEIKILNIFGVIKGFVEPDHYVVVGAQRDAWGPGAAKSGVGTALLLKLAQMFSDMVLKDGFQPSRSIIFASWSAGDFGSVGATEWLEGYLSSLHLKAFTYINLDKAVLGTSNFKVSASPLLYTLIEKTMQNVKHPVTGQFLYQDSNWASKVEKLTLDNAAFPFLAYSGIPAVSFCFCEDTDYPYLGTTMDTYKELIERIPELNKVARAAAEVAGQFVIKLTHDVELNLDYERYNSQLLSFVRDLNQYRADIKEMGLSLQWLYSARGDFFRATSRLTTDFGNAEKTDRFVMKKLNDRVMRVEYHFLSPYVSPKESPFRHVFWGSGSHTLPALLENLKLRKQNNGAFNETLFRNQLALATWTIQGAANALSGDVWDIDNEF
T2 sequence (P02787 20-698, chain 2 of 2): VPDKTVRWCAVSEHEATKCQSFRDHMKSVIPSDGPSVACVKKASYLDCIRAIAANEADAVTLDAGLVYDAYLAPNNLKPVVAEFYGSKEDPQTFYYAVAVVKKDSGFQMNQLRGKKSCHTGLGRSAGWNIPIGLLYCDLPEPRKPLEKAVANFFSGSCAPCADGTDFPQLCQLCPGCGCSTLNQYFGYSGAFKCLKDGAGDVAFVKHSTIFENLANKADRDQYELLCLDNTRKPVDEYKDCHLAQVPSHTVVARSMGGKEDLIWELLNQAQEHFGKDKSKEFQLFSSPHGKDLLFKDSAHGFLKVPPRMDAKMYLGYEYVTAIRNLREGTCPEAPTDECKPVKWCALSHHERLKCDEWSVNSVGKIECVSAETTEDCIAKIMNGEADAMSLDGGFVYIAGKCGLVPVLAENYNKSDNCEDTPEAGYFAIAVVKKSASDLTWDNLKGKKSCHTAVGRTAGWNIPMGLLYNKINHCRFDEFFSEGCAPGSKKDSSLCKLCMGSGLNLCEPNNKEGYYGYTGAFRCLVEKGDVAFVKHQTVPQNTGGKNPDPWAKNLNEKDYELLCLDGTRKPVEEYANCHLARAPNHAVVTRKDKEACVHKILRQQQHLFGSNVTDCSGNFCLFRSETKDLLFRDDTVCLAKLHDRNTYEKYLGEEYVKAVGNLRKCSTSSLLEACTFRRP

| Binder | percent inhibition of PvRBP2b161–1454 binding to reticulocytes [1] [%] | fold signal over control mAbs 099100 and 043038 [2] [fold] | percent decrease in FRET signal of PvRBP2b161–1454 with TfR1–Tf [3] [%] | percent binding left at 1 M NH4SCN [4] [%] | percent binding left at 2 M NH4SCN [4] [%] | binding result [5] |
| --- | --- | --- | --- | --- | --- | --- |
| PvRBP2b human mAb 241242 (antibody, V domains shown, variable region as the Fab heavy chain in PDB 6WN1; cloned into a human IgG1 backbone, full-length antibody; lambda light chain; as the Fab light chain in PDB 6WN1; IgG1; also called 241424 [sic]; source: Expi293 HEK cells, transfected, purified (Protein A, gel filtration)) VH: EVQLLESGGGLVQPGGSLRLSCAVSGFTFRNYALSWVRQAPGKGLDWVSTISASGGATYYADSVKGHFTISRDNSKNILYLDMKSLRAEDTAIYYCARDGGSYTPYFFLDSWGQGALVTVSS VL: SYELTQPASVSVAPGQTAQITCGGNSIGRKSIHWYQHKPGQAPVLVISYDSDRPSGIPERFSGSNSGNTATLTISKVEAGDEADFYCQVRDSDNDHVVFGGGTKLTVL | > 98 | > 20 | > 70 | > 75 | < 75 | – |
| PvRBP2b human mAb 243244 (antibody, V domains shown, variable region as the Fab heavy chain in PDB 6WNO; cloned into a human IgG1 backbone, full-length antibody; lambda light chain; as the Fab light chain in PDB 6WNO; IgG1; same clonal group as 237235; source: Expi293 HEK cells, transfected, purified (Protein A, gel filtration)) VH: QVQLVESGGGVVQSGKSLRVSCAASGFTFSSYGMHWVRQAPGKGLEWVAFISYDGDNKYSADSVKGRLTISRDNSKNTLYLQMNSLRPEDTAVYYCAKESNYGENAFDIWGQGTMVTVSS VL: QSALTQPRSVSGSPGQSVTISCTGTSSDVGFYNFVSWYQHHPGKAPKLIIYDVSERPSGVPDRFSGSKSGNTASLSISGLQPEDEADYYCCSYAGTYTFVFGSGTKVTVL | 43 | > 20 | – | – | > 75 | – |
| PvRBP2b human mAb 251249 (antibody, V domains shown, variable region as the Fab heavy chain in PDB 6WOZ; cloned into a human IgG1 backbone, full-length antibody; kappa light chain; as the Fab light chain in PDB 6WOZ; IgG1; source: Expi293 HEK cells, transfected, purified (Protein A, gel filtration)) VH: EVQLVESGGGLVKPGGSLRLSCEASGFLFSSYSMNWVRQAPGKGLEWVSSITGYSSEVFYTDSVKGRFTVSRDNSKNSLYLQMDSLRAEDTAVYYCARALTIFGVVITDYWFFDLWGRGTLVTVSS VL: EIVLTQSPATLSLSPGDRATLSCRASQSVTTFLAWYQQKPGQAPRLLIYDVSNRATGIPARFSGSGSGTDFTLTISSLEPEDFAVYYCQQRSNWGLTFGGGTKVEIK | 59 | > 20 | – | < 75 | – | – |
| PvRBP2b human mAb 253245 (antibody, V domains shown, variable region as the Fab heavy chain in PDB 6WTY; cloned into a human IgG1 backbone, full-length antibody; lambda light chain; as the Fab light chain in PDB 6WTY; IgG1; source: Expi293 HEK cells, transfected, purified (Protein A, gel filtration)) VH: EVQLVQSGAEVKKPGSSMKVSCKASGGTFNRYVFSWVRQAPGQGLEWMGGILPILETTYYAKNFKGRVTITADESTSTVYMELSSLTSEDTAVYFCARDEHDYVWGSYRPSLTGPWGQGTLVTVSS VL: QSALTQPPSTSGSPGQSVTISCTGTGIDVGGFSYVSWFQYHPGKAPKLIIFEVTKRPSGVPDRFSGSKSGNTASLTISGLQADDEAEYYCSSYAVNNNFVFGTGTKVTVL | > 98 | > 20 | > 70 | > 75 | < 75 | – |
| PvRBP2b human mAb 258259 (antibody, V domains shown, variable region as the Fab heavy chain in PDB 6WTV; cloned into a human IgG1 backbone, full-length antibody; lambda light chain; as the Fab light chain in PDB 6WTV; IgG1; same clonal group as 273264; source: Expi293 HEK cells, transfected, purified (Protein A, gel filtration)) VH: EVQLLESGGGLVRPGGSQRLSCAASGFTFTPYAMTWVRQAPGKGLEWLSTISGSGGSTYYADSVKGRFTISRDNSKNMLYLQMNSLTAEDTALYYCTKDKDEYTFGHNAFDVWGQGTMVTVSS VL: SYELTQAPSVSVAPGQTARITCGGDNIGRKTVNWYQQKPGQAPVLVIYYDNDRPSGIPERFSGSNSGNMATLSISRVEVGDEADYYCQVWDSNNDHPVFGGGTKLTVV | > 98 | > 20 | > 70 | < 75 | – | – |
| PvRBP2b human mAb 273264 (antibody, V domains shown, variable region as the Fab heavy chain in PDB 6WTU; cloned into a human IgG1 backbone, full-length antibody; lambda light chain; as the Fab light chain in PDB 6WTU; IgG1; same clonal group as 258259; source: Expi293 HEK cells, transfected, purified (Protein A, gel filtration)) VH: EVQLLESGGGLVRPGGSQRLSCAASGFTFTPYAMTWVRQAPGKGLEWLSTISGSGGSTSYADSVKGRFTISRDNSKNILYLQMDSLRAEDTALYYCTKDKDEYTFGHNAFDVWGRGTMVTVSS VL: SYELTQAPSVSVAPGQTARITCGGDNIGRTSVHWYQQKPGQAPVLVIFYDNDRPSGIPERFSGSNSGNMATLSISRVEVGDEADYYCQVWDSNNDHPVFGGGTKLTVV | > 98 | > 20 | > 70 | < 75 | – | – |
| PvRBP2b human mAb 283284 (antibody, V domains shown, variable region as the Fab heavy chain in PDB 6WQO; cloned into a human IgG1 backbone, full-length antibody; kappa light chain; as the Fab light chain in PDB 6WQO; IgG1; source: Expi293 HEK cells, transfected, purified (Protein A, gel filtration)) VH: QVQLQQWGAGLLKPSETLALTCTVYGGSSSGYYWNWIRQSPGKGLEWIGEISDSGSTIYNPSLESRVTMSVDTSKNQFSLKLTSVTAADTAVYYCAKAILTRYNWLDPWSQGTLVTVSS VL: DIVMTQSPSSLSASVGDRISISCRASQGVNSALAWYQQKPGKAPKLLIYDASTLESGVPSRFSGSGSGTDFALTINSLQPEDFATYYCQQFNSYPLTFGGGTKVEIK | – | > 20 | – | < 75 | – | – |
| PvRBP2b human mAb 237235 (antibody, V domains shown, variable region as the Fab heavy chain in PDB 6WM9; cloned into a human IgG1 backbone, full-length antibody; lambda light chain; as the Fab light chain in PDB 6WM9; IgG1; same clonal group as 243244; source: Expi293 HEK cells, transfected, purified (Protein A, gel filtration)) VH: QVQLVESGGGVVQPGRSLRLSCAASGFMFNSYGMHWVRQAPGKGLEWMAFISYDGSDDYYGDSVKGRITISRDNSKNTLFLHINSLRTEDTAVYYCAKESNYGENAFDVWGHGTMVTVSS VL: QSALTQPRSVSGSPGQSVTISCTGTSNDVGFYNFVSWYQHHPGKAPKLMIYDVTERPSGVPDRFSGSKSGNTASLTISGLQAEDEAEYYCCSYAGTYTFVFGHGTKVTVL | 47 | > 20 | – | – | > 75 | – |
| P. vivax Reticulocyte Binding Protein 2b, residues 161–1454 (domain or fragment, P. vivax strain Salvador I, UniProt A5K736 161-1454, looked up, DyLight 488 (NHS ester) in the FRET assay; biotin (BirA site) in the competition ELISA between human mAbs, PvRBP2b, P. vivax strain Salvador I, PlasmoDB PVX_094255 (total length 2806 amino acids), residues 161-1454; also called PvRBP2b_(161–1454); PvRBP2b; source: recombinant; expressed and purified in a similar manner as PvRBP2b161–470 (E. coli SHuffle T7; HisTrap, Q-Sepharose, size exclusion) or as previously described) PSPESTQITNTTDNIDYFDISDESNYYLISQLRPHFSNIYFFDEFKRYASYHTEIKRYEDIHKTKVNSLLNEASRAIGICNRAKNTVKGLINILENPQKFKTQRESYDVKLRQYEEKKEAFRGCLLNKNRKNLDQIKKINNEIRDLLEKLKCSQDCQTNVYFDMIKIYLVDFKKMPYENYDTFIKQYKNSYLSGVDMIRKIEKQIDNPVTINAIKFTQKEMGYIIDRFEYHLQKVKHSIDQVTALSDGVKPKQVTKNRLKEYYFNIGNYYSIFKFGKDSLNMLNKALIHKEKIVHNLLGELFGHLEERISKLIDSEYFITESNNIISQSEETLKLAEDVYDKNTKLIEDLTLYPHLEINEFKKDYDNNVEDLRESIIYIQSYVSSIKSAYRYNVLEKDSVESKQKNIPANSNAQKKVDELLSIIDSISYSNFSVAENFQKMKDYYKEIEKLKIKILQLIEAIKKYQQHVEELINKEKAVAILKEDINKIIEYIKGIIEKLKQLISANKDFDKIFQQVEQLINEALFNKDQFEHNKNDLHTKMKEIMHTFHERDLQQFLDNMSKFLKDQEASYQNADSKEKLDQLLTTVKAKQDELKEMKCDDIPDIIDNLKKESQNVLNLKDEVINKQFENMRTEMSSSLDQMTKEYNALKSSIEEYEAEKKGIENHKQNIIKRKNTFIVAEHENDEDVPEGKNTYNEFISNKDTILQKESAISNQMNTLEEKKRNRKTTLQTYGDAIQKLETYTEKKDEETKVLLDKFNTEVENFKLDEDEKSFNDAKSIVSNTINEVENENKNIDSIKKVNIAMKRSRSNQQSVEQLIRNKDNLLKEKMEKHFQKINTDEIIGQSAKANLLNNLESEKAIINEQLNDAHLNDLKLQIEKTLSYCEKSRENIKGNNGTHPEELNASEIEWEATKGKIETLNSNYQALNKNMDDIINKQHDEMIVLIDRDIKEKGKDIELKVEQRIQALEKMKAKLSSFDTNEDVKKYQSDINKEELIKLKEMSTAVLNKIDQNKNQLINVKTKSSGYVAESNGIKNKQTEPSQEKDKQIVYNTNRGDIEKVYKNIRDMYNELDDVEKEETTSNEVDNIEMQYDRLLINLLVQKINEENTKAKGLMEEIKSYIENIESVQAKMSDETREGATEFEFNQYQQSSLANDKKITEIVQHAINKKGEAERSKKTNEVKSIKNDVNTYMQQVIDEYNAMQKALGDIKNVNDLLISTSGRRIAEEISKSTNEAENFEKQAKGELGKINDIIEKMENQMVQAKEHENKIHINLEDKQIDEEVQKIRQIHEE | – | – | – | – | – | binds |
